Experimental data taken from paper PMC8140096, “Structural basis of substrate recognition and thermal protection by a small heat shock protein” (Nature Communications, 2021).

B1: Arabidopsis thaliana 1-deoxy-D-xylulose 5-phosphate synthase (59-717), C-terminal hexahistidine-FLAG tandem tag (enzyme, UniProt Q38854 59-717, looked up)
chain: ASLAEKGEYYSNRPPTPLLDTINYPIHMKNLSVKELKQLSDELRSDVIFNVSKTGGHLGSSLGVVELTVALHYIFNTPQDKILWDVGHQSYPHKILTGRRGKMPTMRQTNGLSGFTKRGESEHDCFGTGHSSTTISAGLGMAVGRDLKGKNNNVVAVIGDGAMTAGQAYEAMNNAGYLDSDMIVILNDNKQVSLPTATLDGPSPPVGALSSALSRLQSNPALRELREVAKGMTKQIGGPMHQLAAKVDEYARGMISGTGSSLFEELGLYYIGPVDGHNIDDLVAILKEVKSTRTTGPVLIHVVTEKGRGYPYAERADDKYHGVVKFDPATGRQFKTTNKTQSYTTYFAEALVAEAEVDKDVVAIHAAMGGGTGLNLFQRRFPTRCFDVGIAEQHAVTFAAGLACEGLKPFCAIYSSFMQRAYDQVVHDVDLQKLPVRFAMDRAGLVGADGPTHCGAFDVTFMACLPNMIVMAPSDEADLFNMVATAVAIDDRPSCFRYPRGNGIGVALPPGNKGVPIEIGKGRILKEGERVALLGYGSAVQSCLGAAVMLEERGLNVTVADARFCKPLDRALIRSLAKSHEVLITVEEGSIGGFGSHVVQFLALDGLLDGKLKWRPMVLPDRYIDHGAPADQLAEAGLMPSHIAATALNLIGAPREALF
notes: 1-deoxy-D-xylulose 5-phosphate synthase (DXPS), Arabidopsis thaliana, UniProt Q38854, residues 59-717, without the transit peptide; also called DXPS; DXPS-His-FLAG; source: E. coli BL21 Rosetta 2 (DE3), co-expressed with His-Hsp21 at 37 °C, purified (HisTrap, anti-FLAG M2); not shown: His6, C-terminal, kept; FLAG, C-terminal, kept
B2: Arabidopsis thaliana plastid small heat shock protein Hsp21 (44-227), N-terminal hexahistidine tag (natural protein)
chain: not shown
notes: Hsp21, Arabidopsis thaliana, UniProt P31170, residues 44-227, without the transit peptide; Alone it is a dodecamer (twelve identical subunits, tetrahedral); In the complex with DXPS it is a single monomer; also called His-Hsp21; Hsp21 dodecamer; source: E. coli BL21 Rosetta 2 (DE3), co-expressed with DXPS-His-FLAG at 37 °C, complex purified (HisTrap, anti-FLAG M2); E. coli BL21 Rosetta (DE3), …

Legend:
[1] = target: the molecule itself; experiment: cryo-EM structure; His-Hsp21 and DXPS-His-FLAG co-expressed in E. coli at 37 °C, purified together (HisTrap, anti-FLAG), 0.7 mg/mL; 3D classification gave free DXPS (4.0 Å) and Hsp21-DXPS (3.7 Å)
[2] = target: B1; experiment: as above; details: both partners purified
[3] = target: the molecule itself; experiment: cryo-EM structure; purified Hsp21 without substrate, 1 mg/mL; tetrahedral symmetry imposed, 4.6 Å

stoichiometry N [2] | Binder | stoichiometry N [1] | stoichiometry N [3]
– | B1 | 2 | –
1 | B2 | – | 12
